First the molecules themselves.
B1: Mutation 1-23 (antibody, V domains shown)
VH: EVQLQQPGPELVKPGASVKMSCKASGYTFTSYVIHWVRQKPGQGLEWIGYMNPYNDGLKYNEKFIGKAILTSDKSSSTAYMQLSSLTSEDSAVYYCTKEGLFYVFDYWGQGTSVTVSS
VL: QIVLTQSPAIMSASPGEKVTMTCSATSSLSYMHWYQQKSGTSPKRWIYDSSKLASGVPVRFSGSGSGTSYSLTISSMEAEDAATYFCQQWRSDLPTFGAGTKLELKR
B2: WT 1-5 (antibody, V domains shown)
VH: B1 VH with F29V, P53A, E62D
VL: B1 VL with A25G, L29V, G56P, Q89W, D93V
B3: WT 1-11 (antibody, V domains shown)
VH: B1 VH with F29V, Y32T, P53A, L58I, E62D, K98R, F105M
VL: B1 VL with A25G, L29I, S50T, G56P, Q89Y, D93V
B4: Mutation 1-38 (antibody, V domains shown)
VH: B1 VH with F105M
VL: B1 VL with L29I, Q89W
B5: Mutation 1-51 (antibody, V domains shown)
VH: B1 VH with Y32T, K98R, F105M
VL: B1 VL with L29I, Q89W
B6: Mutation 1-42 (antibody, V domains shown)
VH: B1 VH with Y32T, L58I, K98R
VL: B1 VL with S50T
B7: WT 1-14 (antibody, V domains shown)
VH: B1 VH with F29V, Y32S, P53A, E62D, K98R
VL: B1 VL with A25G, G56P, Q89W, D93V
B8: Mutation 1-45 (antibody, V domains shown)
VH: B1 VH with Y32T, L58I
VL: B1 VL with Q89W
B9: Mutation 1-33 (antibody, V domains shown)
VH: B1 VH with Y32T, K98R
VL: B1 VL with L29I, Q89W
B10: Mutation 1-29 (antibody, V domains shown)
VH: B1 VH with L58I, K98R
VL: B1 VL with L29I, Q89W
B11: Mutation 1-48 (antibody, V domains shown)
VH: B1 VH with Y32T, F105M
VL: B1 VL with Q89W
B12: Mutation 1-43 (antibody, V domains shown)
VH: B1 VH with Y32S, L58I, F105M
VL: B1 VL with S50T, Q89Y
B13: Mutation 1-36 (antibody, V domains shown)
VH: B1 VH with Y32T, K98R
VL: B1 VL
B14: Mutation 1-27 (antibody, V domains shown)
VH: B1 VH with Y32T, K98R
VL: B1 VL with L29V
B15: Mutation 1-31 (antibody, V domains shown)
VH: B1 VH with Y32S, L58I, K98R
VL: B1 VL with L29V, Q89W
B16: Mutation 1-41 (antibody, V domains shown)
VH: B1 VH with L58I, K98R, F105M
VL: B1 VL with L29I, Q89W
B17: Mutation 1-32 (antibody, V domains shown)
VH: B1 VH with L58I, F105M
VL: B1 VL with L29V, S50T
B18: Mutation 1-37 (antibody, V domains shown)
VH: B1 VH with Y32S, L58I, K98R
VL: B1 VL with L29V, S50T, Q89Y
B19: Mutation 1-26 (antibody, V domains shown)
VH: B1 VH with L58I, K98R, F105M
VL: B1 VL with S50T, Q89W
B20: Mutation 1-40 (antibody, V domains shown)
VH: B1 VH with Y32S
VL: B1 VL with L29V, S50T, Q89Y
B21: Mutation 1-53 (antibody, V domains shown)
VH: B1 VH with L58I, K98R, F105M
VL: B1 VL with L29V, S50T, Q89Y
B22: Mutation 1-49 (antibody, V domains shown)
VH: B1 VH with Y32S, L58I, K98R
VL: B1 VL with L29V, S50T
B23: Mutation 1-28 (antibody, V domains shown)
VH: B1 VH with Y32S, L58I, F105M
VL: B1 VL with L29V, S50T, Q89Y
B24: Mutation 1-30 (antibody, V domains shown)
VH: B1 VH with Y32T, K98R, F105M
VL: B1 VL with S50T, Q89Y
B25: Mutation 1-44 (antibody, V domains shown)
VH: B1 VH with K98R
VL: B1 VL with L29V, Q89Y
B26: Mutation 1-50 (antibody, V domains shown)
VH: B1 VH
VL: B1 VL with L29I, S50T, Q89Y
B27: Mutation 1-34 (antibody, V domains shown)
VH: B1 VH with Y32S, L58I, K98R
VL: B1 VL with S50T, Q89Y
B28: Mutation 1-47 (antibody, V domains shown)
VH: B1 VH with L58I, K98R
VL: B1 VL with L29I, Q89Y
B29: Mutation 1-24 (antibody, V domains shown)
VH: B1 VH with Y32T, L58I, K98R, F105M
VL: B1 VL with L29V, S50T, Q89Y
B30: Mutation 1-39 (antibody, V domains shown)
VH: B1 VH with Y32T, L58I, K98R
VL: B1 VL
B31: Mutation 1-35 (antibody, V domains shown)
VH: B1 VH with F105M
VL: B1 VL with L29V, Q89W
B32: Mutation 1-52 (antibody, V domains shown)
VH: B1 VH with Y32S
VL: B1 VL
B33: Mutation 1-25 (antibody, V domains shown)
VH: B1 VH with Y32S, K98R
VL: B1 VL with L29I, Q89W
B34: Mutation 1-46 (antibody, V domains shown)
VH: B1 VH with Y32S, K98R, F105M
VL: B1 VL with L29V, S50T

Changes are numbered by the printed parent chain.

Broadly, the Kd is a measure of binding affinity in units of concentration. Broadly, the koff is the first-order rate constant of dissociation. The kon is a measure of how fast the partners come together.

This assay deals with DN-IV quality control recombinant protein (produced by the company) (dengue virus). Description: BLI, antibody on AMC sensor.
Turning to B1, the Kd was determined as 3.97 nM, the koff was found to be 0.00019 s⁻¹ and the kon was 47800 M⁻¹ s⁻¹.
The corresponding values for B2 are 57.8 nM, 0.000264 s⁻¹ and 4570 M⁻¹ s⁻¹.
In the same order, the values of B3 are 57.1 nM, 0.000244 s⁻¹ and 4270 M⁻¹ s⁻¹.
Turning to B4, the Kd was determined as 0.643 nM, the dissociation rate constant (koff) turned out to be 0.000292 s⁻¹ and the association rate constant (kon) came out at 454000 M⁻¹ s⁻¹.
In the same order, the values of B5 are 0.5 nM, 0.000201 s⁻¹ and 402000 M⁻¹ s⁻¹.
For B6, the Kd was determined as 0.532 nM, the koff came out at 0.000209 s⁻¹ and the kon was found to be 393000 M⁻¹ s⁻¹.
The corresponding values for B7 are 45.6 nM, 0.000188 s⁻¹ and 4120 M⁻¹ s⁻¹.
B8: the Kd was found to be 4.22 nM, the koff is 0.000174 s⁻¹ and the kon is 41200 M⁻¹ s⁻¹.
On to B9, for which the Kd was 0.56 nM, the koff came out at 0.000276 s⁻¹ and the kon is 493000 M⁻¹ s⁻¹.
The corresponding values for B10 are 0.493 nM, 0.000178 s⁻¹ and 361000 M⁻¹ s⁻¹.
In the same order, the values of B11 are 0.665 nM, 0.000248 s⁻¹ and 373000 M⁻¹ s⁻¹.
On to B12, for which the Kd turned out to be 0.624 nM, the koff is 0.000256 s⁻¹ and the kon was found to be 410000 M⁻¹ s⁻¹.
The corresponding values for B13 are 0.657 nM, 0.000282 s⁻¹ and 429000 M⁻¹ s⁻¹.
For B14, the Kd was 3.55 nM, the koff worked out at 0.000149 s⁻¹ and the kon is 42000 M⁻¹ s⁻¹.
In the same order, the values of B15 are 0.579 nM, 0.00023 s⁻¹ and 397000 M⁻¹ s⁻¹.
B16: the Kd was found to be 0.455 nM, the koff stood at 0.00016 s⁻¹ and the kon worked out at 352000 M⁻¹ s⁻¹.
In the same order, the values of B17 are 0.631 nM, 0.000221 s⁻¹ and 350000 M⁻¹ s⁻¹.
As for B18, the Kd came out at 3.63 nM, the koff was found to be 0.000145 s⁻¹ and the kon amounted to 39900 M⁻¹ s⁻¹.
The corresponding values for B19 are 3.61 nM, 0.000152 s⁻¹ and 42100 M⁻¹ s⁻¹.
In the same order, the values of B20 are 0.671 nM, 0.000261 s⁻¹ and 389000 M⁻¹ s⁻¹.
In the same order, the values of B21 are 2.71 nM, 0.000115 s⁻¹ and 42500 M⁻¹ s⁻¹.
As for B22, the Kd was found to be 0.765 nM, the off-rate (koff) came out at 0.000299 s⁻¹ and the kon turned out to be 391000 M⁻¹ s⁻¹.
The corresponding values for B23 are 0.591 nM, 0.000259 s⁻¹ and 438000 M⁻¹ s⁻¹.
In the same order, the values of B24 are 3.12 nM, 0.000132 s⁻¹ and 42300 M⁻¹ s⁻¹.
For B25, the Kd stood at 2.63 nM, the koff was found to be 0.00011 s⁻¹ and the kon was 41800 M⁻¹ s⁻¹.
In the same order, the values of B26 are 3.79 nM, 0.000167 s⁻¹ and 44100 M⁻¹ s⁻¹.
The corresponding values for B27 are 2.89 nM, 0.000112 s⁻¹ and 38700 M⁻¹ s⁻¹.
As for B28, the Kd stood at 0.57 nM, the koff is 0.000211 s⁻¹ and the kon amounted to 370000 M⁻¹ s⁻¹.
In the same order, the values of B29 are 2.85 nM, 0.000133 s⁻¹ and 46600 M⁻¹ s⁻¹.
The corresponding values for B30 are 4.55 nM, 0.000186 s⁻¹ and 40900 M⁻¹ s⁻¹.
In the same order, the values of B31 are 0.661 nM, 0.000252 s⁻¹ and 381000 M⁻¹ s⁻¹.
As to B32, the Kd was found to be 3.02 nM, the dissociation rate constant (koff) stood at 0.000124 s⁻¹ and the kon was 41000 M⁻¹ s⁻¹.
The corresponding values for B33 are 2.92 nM, 0.00014 s⁻¹ and 47900 M⁻¹ s⁻¹.
On to B34, for which the Kd was 0.569 nM, the koff is 0.000222 s⁻¹ and the kon was found to be 390000 M⁻¹ s⁻¹.

For the origin of these results see patent publication US20210324054A1.
